Source: US20090074771A1 (MacroGenics, published 2009)
Each block holds one molecule with its values, some of them ahead of it.

Assays:
[1] = target: human FcγRIIB (CD32B) on cells (human) (UniProt P31994); assay: double-staining FACS on CHO cells with full-length FcγRIIB, isotype control pre-incubation
[2] = target: T1, FcγRIIIA coated on ELISA plates (UniProt P08637 17-208, limits assumed); assay: direct ELISA, receptor-coated plate
T1 construct: 100 ng/well on the plate

[3] = target: T2, soluble extracellular domain of human CD32A-R131 (human, UniProt P12318 34-217); assay: SPR (BIAcore), antibody captured, soluble monomeric receptor injected
T2 construct: extracellular domain; Monomeric analyte in BIAcore, 100 nM
T2 sequence (looked up): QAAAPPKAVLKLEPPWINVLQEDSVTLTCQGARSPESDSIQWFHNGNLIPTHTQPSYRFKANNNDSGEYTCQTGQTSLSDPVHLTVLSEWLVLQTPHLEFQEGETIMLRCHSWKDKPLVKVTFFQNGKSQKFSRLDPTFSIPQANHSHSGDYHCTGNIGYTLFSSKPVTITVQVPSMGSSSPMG
Experimental: The capturing antibody, a F(ab′)2 fragment of a goat anti-mouse Fc-specific antibody (Jackson Immunoresearch, West Grove, Pa.), was immobilized on the CM-5 sensor chip according to the procedure recommended by the manufacturer. Briefly, the carboxyl groups on the sensor chip surface were activated with an injection of a solution containing 0.2M N-ethyl-N-(3diethylamino-propyl) carbodiimide and 0.05M N-hydroxy-succinimide. The F(ab′)2 fragment was then injected over the activated CM-5 surface in 10 mM sodium-acetate, pH 5.0, at flow rate 5 μl/min for 420 sec, followed by 1 M ethanolamine for deactivation. Binding experiments were performed in HBS-P buffer containing 110 mM HEPES, pH 7.4, 150 mM NaCl, and 0.005% P20 surfactant. Each monoclonal antibody was captured on the CM-5 chip by injecting a 300 nM-antibody solution at flow rate 5 μl/min for 240 sec, followed by an injection of the monomeric soluble receptors at concentration of 100 nM and a flow rate 50 μl/min for 120 sec with dissociation time 180 sec. Regeneration of the F(ab′)2 GAM surface was performed by pulse injection of 50 mM glycine, pH 1.5 and 50 mM NaOH. […] Resulted curves were analyzed by separate ka/kd fit. KD values were calculated as average of four curves at two different concentrations. […]

[4] = target: T3, soluble extracellular domain of human FcγRIIB (CD32B), produced in mammalian (293/293H) cells (human, UniProt P31994 43-217); assay: direct ELISA, receptor-coated plate
T3 construct: extracellular domain; also called mammalian FcγRIIB; soluble monomeric human CD32B
T3 sequence (looked up): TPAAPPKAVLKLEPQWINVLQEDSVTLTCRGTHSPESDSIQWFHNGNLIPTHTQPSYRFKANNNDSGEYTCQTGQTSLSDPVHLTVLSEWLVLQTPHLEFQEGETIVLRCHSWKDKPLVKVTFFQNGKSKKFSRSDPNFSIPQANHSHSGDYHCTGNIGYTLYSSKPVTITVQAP

[5] = target: T4, CD32A (H131 form) on THP-1 monocytic cells (human, UniProt P12318 34-317); assay: FACS on THP-1 cells
T4 construct: whole, on cells
T4 sequence (looked up): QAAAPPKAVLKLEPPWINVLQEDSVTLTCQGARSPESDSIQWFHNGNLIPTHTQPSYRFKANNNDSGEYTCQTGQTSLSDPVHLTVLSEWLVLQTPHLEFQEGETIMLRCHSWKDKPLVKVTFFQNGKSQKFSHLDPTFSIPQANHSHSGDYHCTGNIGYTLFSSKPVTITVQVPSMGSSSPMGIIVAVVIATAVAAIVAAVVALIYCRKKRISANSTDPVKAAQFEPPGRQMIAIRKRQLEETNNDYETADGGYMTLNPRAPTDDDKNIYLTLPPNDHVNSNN
Experimental: Recognition of CD32B on the cell surface. Experiments were carried out to test the ability of the antibodies to discriminate CD32B from CD32A expressed on cells and to recognize the native CD32B molecule on human cell lines.

T1 sequence (P08637 17-208 limits assumed): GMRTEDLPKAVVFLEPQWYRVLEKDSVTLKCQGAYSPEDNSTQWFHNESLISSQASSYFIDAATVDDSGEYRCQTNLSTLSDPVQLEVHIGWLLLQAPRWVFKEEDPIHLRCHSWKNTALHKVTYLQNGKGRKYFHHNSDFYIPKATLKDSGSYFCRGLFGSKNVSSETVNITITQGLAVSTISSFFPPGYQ

percent of cells stained [1]: 60%
Molecule: aggregated human IgG (ligand)

binding result [2]: no binding
B1: mouse monoclonal antibody produced by clone 3H7 (antibody, V domains shown)
VH: EVKFEESGGGLVQPGGSMKLSCAASGFTFSDAWMDWVRQGPEKGLEWVAEIRNKANNLATYYAESVKGRFTIPRDDSKSSVYLHMNSLRAEDTGIYYCYSPFAYWGQGTLVTVSA
VL: DIQMTQSPSSLSASLGERVSLTCRASQEISGYLSWLQQKPDGTIRRLIYAASTLDSGVPKRFSGSWSGSDYSLTISSLESEDFADYYCLQYVSYPYTFGGGTKLEIK
notes: also called 3H7 antibody; 3H7 supernatant

fold binding relative to AT10, FL18.26 and IV.3 [4]: ≤ 4.5 fold
binding result [5]: no binding
B2: mouse monoclonal antibody produced by clone 2B6 (antibody, V domains shown)
VH: QVQLQQPVTELVRPGASVMLSCKASDYPFTNYWIHWVKQRPGQGLEWIGVIDPSDTYPNYNKKFKGKATLTVVVSSSTAYMQLSSLTSDDSAVYYCARNGDSDYYSGMDYWGQGTSVTVSS
VL: DILLTQSPAILSVSPGERVSFSCRTSQSIGTNIHWYQQRTNGFPRLLIKNVSESISGIPSRFSGSGSGTDFILSINSVESEDIADYYCQQSNTWPFTFGGGTKLEIK
notes: also called 2B6 antibody; m2B6
binding result [3]: no binding (tested: 100 nM soluble receptor)
